Assay results: the DeepSol protein solubility set

test: soluble on expression in E. coli; label from the status in PepcDB or PDB records

Soluble on expression in E. coli, soluble:
MSLREVALKILIVEDDTDAREWLSTIISNHFPEVWSAGDGEEGERLFGLHAPDVIITDIRMPKLGGLEMLDRIKAGGAKPYVIVISAFSEMKYFIKAIELGVHLFLPKPIEPGRLMETLEDFRHIKLAKLKKEEAEQERIRSLLFESKKELIRLIAHHWRQPLNVISITAENIKLNLDERGIEGHEDTHHLADKIVTESLRLSRVISRFSDTFFAKEEVGRHFGLHTVLKDAFEIAEPLAQEARCLLEIEGNDEVIFGLKGMLVQILLEVFKAIMALCDQVNRGELLVRVVCESFEGEVKIWMADVACAGRCWSEVMFEPFAGGFEEKRRDMELFVAQHLLRRYFDGMIKIVDRGEIRGLEITLSRNPKKFNSPLAEGHHHHHH, MSTNPSQLVAADRIGFARLTKRAFDGENLYPLWQELMSKTDAGTATAGEQLDLALITQLFGHKQAGLSVQTETLKQQQLFRSPCASDNPRLRVLALAADIDMGGNTPIEFLLQDSGIELQTLYVIDGVPLPDPLPAHDVAIVIASDSDECMSALAAIEARVANWPAPLLNPPHLIRHLDRDKLYRLIGDIEGLEIPDTISVGRDTLVAAANGSATLPEVTGGVDFPIIVRPRGSHAGFGLARITDSVALLDYLRDRQESDYFIARYVDYASDDGQFRKYRVVVVDGKPYACHMAIANRWDIWYLNAGMAEDEVKRLEEAAFFHTFDFGFALRHKTALDGMIERIGLDYFTIDCAQTPRGDLLVFEIDNTAVVHDMDSPELYPYKPPQMHKIFDAFASMLERRVASRLTSVAAAALEHHHHHH, GLIIGPEEDYDPGYFNNESDIIFQDLEKLKSHPAYLVVFLRYILSQADPGPLLFYLCSEVYQQTNPKDSRSLGKDIWNIFLEKNAPLRVKIPEMLQAEIDLRLRNNEDPRNVLCEAQEAVMLEIQEQINDYRSKRTLGLGSLYGENDLLGLDGDPLRERQMAEKQLAALGDILSKYEEDRSAPMDFAVNTFMSHAGIRLRESR, GSHSLRYFVTAVSRPGHGKPRYMEVGYVDDTEFVRFDSDAENPRYEPRTPWMEQVEPEYWEGQTQIAKGNEQSSRVDLRTALRYYNQSAGGSHTIQRMRGCEVGSDGRLLRGYQQVAYDGRDYIALNEDLKTWTAADMAALITKHKWEQAGAAERDRAYLEGACVEWLRRYLELGNATLLRTDSPKAHVTHHSRPKDKVTLRCWALGFYPADITLTWQLNGEELTQDMELVETRPAGDGTFQKWASVVVPLGKEQNYTCHVYHEGLPEPLTLRW, MSQTVNIVGAGLAGSEAAYQLAQRGIKVNLIEMRPVKQTPAHHTDKFAELVCSNSLRGNALTNGVGVLKEEMRRLDSLIISAADKARVPAGGALAVDRHDFSGYITETLRNHPNVTVINEEINSIPEGYTIIATGPLTTENLAKEIVDITGKDQLYFYDAAAPIIEKESIDMDKVYLKSRYDKGEAAYLNCPMTEEEFNRFYDAVLEAEVAPTNEFEKEKYFEGCMPFEVMAERGRKTLLFGPMKPVGLEDPKTGKRPFAVVQLRQDDAAGTLYNIVGFQTHLKWGAQKEVIRLIPGLENVDIVRYGVMHRNTFINSPDVLNEKYELIKEDRIQFAGQMTGVEGYVESAASGLVAGINLAHKLLDKGEVIFPRETMIGSMAYYISHAKNEKNFQPMNANFGLLPSLEKRIKDKKERYEAQANRALEYLENYKKTLLEHHHHHH, MGETKLFFGPNHPGMHGNFSVHMYVEGDIVKKARPVPGFLHRGFEKLMERRYWYSNISLIPRICVPEPDINEICYAMAIEKIAKVEVPERAQWIRMIVLELARIANHIWTVGGIGGPLGLYTASHWGVADRDRILDIFEALSGARVYHMYIIPGGVRKNMTPKIEEMIWKTLDYIESRLPDYENLIFKNRIVHSRLRGRLILTREQAVEMGVTGVGLRATGVEYDIRKVDPYLFYDRVEFEVPTATDGDAFSRVYLKFKEIPQSIKIIRQALEKMPQADRVNVPIGRGNGLRRIVPKGMAYAHVESTRGEYGFFVVSDGKNKPYRVAVRGASYPQGLYGIEKYLPGTRIEDVPIWLATMDVCAPEIDR, SYVQDYRSPFIASVSDQHGVVYITENKNKTVVIPCLGSISNLNVSLCARYPEKRFVPDGNRISWDSKKGFTIPSYMISYAGMVFCEAKINDESYQSIMYIVVVVGYRIYDVVLSPSHGIELSVGEKLVLNCTARTELNVGIDFNWEYPSSKHQHKKLVNRDLKTQSGSEMKKFLSTLTIDGVTRSDQGLYTCAASSGLMTKKNSTFVRVHEKPFVAFGSG, GHVETIKNTFLNPKSNKVLVVAHRGNWRSAPENSTAAIDSAIAMKVDIVEIDIQKTKDGQLILMHDNTLDRTTTGKGEIKNWTLADIKKLKLKDKDGKVTNYVVPTLEEALLTAKGKIMVNLDKAYDIFDDVYAILEKTETQNQVIMKGGQPIETVKREFGSYLDKVLYMPVIDLGNKEAEKIITDYLKELRPAAFEIIYSDPKNPLPPKIKQLLFKKSLIWYNTLWGSLAGNHDDNLALTDPEKSYGYLIEQLGARILQTDQPAYLLDYLRKKGWHN, DYYFDSYDHYGIHEEMLQDTVRTLSYRNAIIQNKDLFKDKIVLDVGCGTGILSMFAAKHGAKHVIGVDMSSIIEMAKELVELNGFSDKITLLRGKLEDVHLPFPKVDIIISEWMGYFLLYESMMDTVLYARDHYLVEGGLIFPDKCSIHLAGLEDSQYKDEKLNYWQDVYGFDYSPFVPLVLHEPIVDTVERNNVNTTSDKLIEFDLNTVKISDLAFKSNFKLTAKRQDMINGIVTWFDIVFPAPKGKRPVEFSTGPHAPYTHWKQTIFYFPDDLDAETGDTIEGELVCSPNEKNNRDLNIKISYKFESNGIDGNSRSRKNEGSYLMH

Soluble on expression in E. coli, not soluble:
MGHHHHHHSHMAVVRATSADVDLMARLLRAEAEGEGKQGMLLVGNVGINRLRANCSDFKGLRTIRQMIYQPHAFEAVTHGYFYQRARDSERALARGSINGERRWPAKFSLWYFRPQGDCPAQWYNQPFVARFKSHCFYQPTAETCENVYNTF, MYDTEIPYEGKISIYTYFCKECGYRKTEVYSDEKRDPKKITIRIENPDDLRIIVYRSRRADVYIPEMEASIDSAEYSNGEITTIEGIIYRIGEKLDLLAADDQNNKKIASLRKRIDGIINGKFESFTLIIMDESGKSVVHS, MYTLSAGIWEKFFKKKDYYVVIVGLDNAGKTTFLEQTKSHFVKDYGVLNPSKITATVGLNTGNVELNNTCLHFWDLGGQESLRELWATYYDDANAMIFVVDATRSDLFPIVASQFKEVMANEIVQNIPVLVAVNKSEMEGAAAAAEVRMLLEDDNHRSDLAVLPVSALEGTNIERCVHWIVRSLASQPLYL, MGSDKIHHHHHHMTTSYTITCSRPTNYGAVLQTYGLNTALRKMGVDAKVLDYNPKYYYTSTQPLPIRMVRAVVRFPDLTKGRKVFGKFLEDYVPMSAKTYRTLAEIEADVPQADVYICGSDQIWNCKNKLNGKDDAFFLSFAPAKARKVAYAASIAMPEIPNNQKTRYHRLISDFDAVSVREPSSVPMLEDLGIDNVQSVIDPVFLLERNDWDVIADASDFVPTEDYVLVYGYNRQKDVYAYARRLAKKLGVKVYTIGTAIEDYTLDQDRYFWNASPNTFVNLVRNAKAVVTNSFHGTVFSIVYNKPFHFFTVKQTTNSRMLDLLDSLTLKDRHVVGEELLSNDIDYDRPNQLLAEAKKRSLGFLQTNVASYVSENKPMKG, MKHTFKLSLLCSAILLAGCGDNTSSSGTTDKVTFESEVQALLDRGTSISFTIQGANADVPAPSYLLMDTSDGTLGLPTNGDDALTNPRASMNTMDGWSTSMPIVLNFNGDGFAPGMLASGVKVIKINQRLTEWDGKTNPIAKVLVQNQDYVVQANGKSLYVQFADSLDESSEYIFAVTQDVTDVNGEPIGTSSSYAVAKSKQVKYESGDLASVQAVTEAVEGIFGLAQVNPADIVYSSWFSTQSVGDTLAAVKGVTATGFATGANTLNTIYKNDTNENAVDLATAYTMVLGETQDFMTALDSDSDFNKYVSDLDAAKTAIKGLYVQSGASVNVTQGQVRLPHYLEKGANWNMQPMVSAMPSLAKLNAALTDPAEQANMVQQLSSGVFASSPVDVSKLATDPTEQLKLVGSKLYLNDGTQLDSERVITRYSPVPEVKSLENVEFLLFTPQNGVAKDVVIYQHGITSAKENAYAFAFNMVQTGVAVIAIDLPIHGTRSLDEQRSANANVLAYLNLSNLAVARDNLRQSVLDVLGLRASLVVSAQGGLLAGGPLQGFNPMTGSQVK, HPECKKSVEDVNNDLKKFVSINGKKTVTEFHRELGKIMWNNVGMARSEESCKEALKVIPQIREEFWKNVKVSGSGAEFNQQLENAGRVADFLEFAELMTLDALHRNESCGGHFRVEHQMPD, SRRLVHDLLPPEVCSLLNPAAIYANNEISLRDVEVYGFDYDYTLAQYADALHPEIFSTARDILIEHYKSLLMKIDAFHYVQLGTAYRGLQPVPDEEVIELYGGTQHIPLYQMSGFYGKGPSIKQFMDIFSLPEMALLSCVVDYFLGHSLEFDQAHLYKDVTDAIRDVHVKGLMYQWIEQDMEKYILRGDETFAVLSRLVAHGKQLFLITNSPFSFVDKGMRHMVGPDWRQLFDVVIVQADKPSFFTDRRKPFRKLDEKGSLQWDRITRLEKGKIYRQGNLFDFLRLTEWRGPRVLYFGDHLYSDLADLMLRHGWRTGAIIPELEREIRIINTEQYMHSLTWQQALTGLLERMQTYQDAESRQVLAAWMKERQELRCITKALFNAQFGSIFRTFHNPTYFSRRLVRFSDLYMASLSCLLNYRVDFTFYPRRTPLQHEAPLWMDQLCTGCMKTPFLGDMAHIR, MGSDKIHHHHHHMGAMRPNQTFSHKAAVKLRSVEFLQYAGVTKFHDVILTSLVDINIGIGKRGSAQIKLPYTCVSGSLANTSGTADISLAYTHAVLVKDTYQLLGTLGGKLPTNNADKLSSDGRPLPMYYQTSLGTNDLVVGLSFITRKWLLATGYQHAFNQIGNDFRWSEWNSSAQRTEALEYPPSWNLKRGSDVMFRIERNFRSTKWNAYLGLLTIYRITPDQVSKGTSENRVEVPNTTGPAITALSGAGYRFSTAVALKAMVGVKIINRDTNPDGLSREFVSSLSVEIRL, MANLGMTGVADGNNSEQTYLGQINYQDQTITKASAKKLNREIDLQRASQLTLWAMPMVGMYQSYNSTIALFDLQEGDAPIIGLHEGYDGVYPFLTANVTTPYTISLVDLSETGPYVVNIPAGSIFGVANNAWQEPIKEIGSGNKETLLFVGPGQEYPKDFDGEVIQSDTNQILYFYRVLGVGAEAEKLKTAVTAYKLSDVANPPQVKFVIYKPKASDADVTIATQPRGMAYWEVVNQYIQNEPMADRDRFFYAWLKDLGIEKGKAFNPTPYQKEILLEGVNTGMAMAQSLAFNKTKKKFSSSLYGSDSGWEGVLAGMDPKIDLDTYSMINERTAYTYEAVTTSAGMIVENPGHGSAYIGSYYDADGNALMGGKNYTLHIEPNPPAANFWSITVYDIKNRLIIRNEIKRSDLSSRSESLVMNSDGSVDLYFGPEAPEGKEGNWIQSNDGESYFMYLRLYGPEQEYFDQTYPMNKIDKTKLEHHHHHH, MTAHPQEDHYKYKKVISIGVVSELTGLSQRQIRYYEERKLVFPDRSRGIRKYSFADVEQLMKIANQREEGVSTWEIRQEMTKELRERMLKGQMNAHFRRRS, MAQTIQLANHSEMTIIDNDLHVDVIGNQAHFSFSGLHNKTFTDREVLFEMPFLYEHEANVIGDGFQMLAQTSGTITHPIEIGRCPDNIPPYRVYSQHAPKRYYNYLVIEDSAGYTLFGFTTCRRFAGYFDIQQRNGQWILTAAIDGEHTQVADWEHNQ
